How the values were obtained:
[1] = molecular target: E. coli-produced Wuhan-Hu1 RBD (receptor binding domain of the SARS-CoV-2 spike protein, a.a. 319-542) (SARS-CoV-2 (Wuhan-Hu1), UniProt P0DTC2); assay: BLI; details: both partners purified
[2] = molecular target: mammalian cell-expressed Wuhan-Hu1 RBD reference standard (SARS-CoV-2 (Wuhan-Hu1), UniProt P0DTC2); assay: BLI; details: both partners purified

Binder	binding result [1]	binding result [2]
mAb WRAIR-2173 (antibody, V domains shown) VH: QVQLQESGPGLVKPSETLSLTCSVSGDSISSSDYSWGWIRQPPGKGLEWIGTIYYIKNTYYNPSLRSRVTLSVDTSKNLFSLKLSSVTAADTAVYYCARERPPFDVVVVPAARPYNWFDPWGLGTLVIVSS VL: QSVLMQPPSVSGAPGQRVTISCTGSSSNIGAGYDVHWYQQLPGTAPKLLIYGNNNRPSGVPDRFSGSKSGTSASLAITGLQADDEADYYCQSYDSSLSGSKVFGGGTKLTVL	binds	
mAb WRAIR-2125 (antibody, V domains shown) VH: EVQLVESGGGVVQPGRSLRLSCAASGFTFSSYGMHWVRQAPGKGLEWVAVISYDGSNKYYADSVKGRFTISRDNSKNTLSLQMNSLRPEDTAVYYCAKDSPYYYDSSGYYPGYFQDWGQGSLVTVSS VL: DIQMTQSPSSLSASIGDRVTITCRASQTISDYLNWYQQKPGKAPNLLIYAASTLQSGVPSRFSGSGSGTDFTLTISSLQPEDFATYYCQQSYITPRTFGQGTKVEIK	binds	binds

Reference: article PMC9864931 (Vaccines, 2022)
